Test results as given in article PMC9482650, “Quantitative fragmentomics allow affinity mapping of interactomes” (Nature Communications, 2022).

T1: APBA2_2, Q99767
T1 sequence (Q99767 654-744, limits assumed, looked up): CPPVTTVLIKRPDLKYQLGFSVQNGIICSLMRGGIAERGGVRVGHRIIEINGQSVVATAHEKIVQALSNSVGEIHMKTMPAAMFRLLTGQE

T2: DFNB31_2, Q9P202
T2 sequence (Q9P202 274-371, limits assumed, looked up): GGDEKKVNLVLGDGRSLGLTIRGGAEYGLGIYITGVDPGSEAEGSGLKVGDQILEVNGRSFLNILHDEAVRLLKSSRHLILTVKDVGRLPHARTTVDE

T3: GRIP1_7, Q9Y3R0
T3 sequence (Q9Y3R0 999-1096, limits assumed, looked up): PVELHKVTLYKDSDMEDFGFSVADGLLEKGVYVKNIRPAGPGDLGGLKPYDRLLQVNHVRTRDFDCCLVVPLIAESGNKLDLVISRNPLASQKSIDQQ

T4: HTRA4, P83105
T4 sequence (P83105 378-476, limits assumed, looked up): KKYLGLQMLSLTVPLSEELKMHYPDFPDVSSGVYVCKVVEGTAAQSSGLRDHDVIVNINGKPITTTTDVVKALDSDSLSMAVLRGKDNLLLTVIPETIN

T5: LIN7A, O14910
T5 sequence (O14910 103-200, limits assumed, looked up): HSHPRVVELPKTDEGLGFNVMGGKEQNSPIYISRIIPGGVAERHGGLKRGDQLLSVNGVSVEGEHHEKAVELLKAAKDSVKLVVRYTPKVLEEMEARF

T6: LNX2_2, Q8N448
T6 sequence (Q8N448 334-432, limits assumed, looked up): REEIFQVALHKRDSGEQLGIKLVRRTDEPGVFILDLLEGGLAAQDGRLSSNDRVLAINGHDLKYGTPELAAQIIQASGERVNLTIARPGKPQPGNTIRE

T7: MPDZ_10, O75970
T7 sequence (O75970 1624-1722, limits assumed, looked up): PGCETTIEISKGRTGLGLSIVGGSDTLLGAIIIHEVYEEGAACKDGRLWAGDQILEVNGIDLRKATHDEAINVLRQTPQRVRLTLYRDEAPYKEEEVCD

T8: MPP2, Q14168
T8 sequence (Q14168 180-250, limits assumed, looked up): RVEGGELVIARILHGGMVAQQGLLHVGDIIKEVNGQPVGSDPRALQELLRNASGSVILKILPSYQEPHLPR

T9: NHERF3_4, Q5T2W1
T9 sequence (Q5T2W1 373-468, limits assumed, looked up): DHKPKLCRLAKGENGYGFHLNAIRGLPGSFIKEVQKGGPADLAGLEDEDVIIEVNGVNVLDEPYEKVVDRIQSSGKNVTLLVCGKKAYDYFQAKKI

T10: PCLO, Q9Y6V0
T10 sequence (Q9Y6V0 4491-4600, limits assumed, looked up): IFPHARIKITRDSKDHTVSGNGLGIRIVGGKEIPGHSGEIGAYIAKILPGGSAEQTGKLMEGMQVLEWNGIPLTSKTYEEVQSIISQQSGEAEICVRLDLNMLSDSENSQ

T11: RADIL, Q96JH8
T11 sequence (Q96JH8 971-1071, limits assumed, looked up): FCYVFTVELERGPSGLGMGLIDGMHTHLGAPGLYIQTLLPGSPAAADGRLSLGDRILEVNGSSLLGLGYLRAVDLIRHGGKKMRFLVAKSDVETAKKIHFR

T12: TX1BP3, O14907
T12 sequence (O14907 10-122, limits assumed, looked up): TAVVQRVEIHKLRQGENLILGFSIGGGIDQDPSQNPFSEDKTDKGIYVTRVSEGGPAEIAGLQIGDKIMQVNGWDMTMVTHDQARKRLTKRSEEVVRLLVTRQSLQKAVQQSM


target: T1, APBA2_2, Q99767; assay: holdup assay; parameters: key: below the threshold = too weak to quantify, mostly under pKd 3.1 to 4; details: plain residues with an end cap or a label only (N-terminal biotin on a linker: ado-ado)

Row | pKd | Binder
1 | below the threshold | TFSRRPKTRV [CD226, Q15762]
2 | below the threshold | IQISELETNV [SLC1A7, O00341]

target: ARHGEF12, Q9NZN5-2; assay: holdup assay; parameters: key: below the threshold = too weak to quantify, mostly under pKd 3.1 to 4; details: plain residues with an end cap or a label only (N-terminal biotin on a linker: ado-ado)
Sequence (Q9NZN5 other isoform, or with tags, fused parts or gaps): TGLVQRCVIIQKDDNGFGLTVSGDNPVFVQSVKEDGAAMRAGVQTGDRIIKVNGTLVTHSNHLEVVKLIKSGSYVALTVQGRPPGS

Row | pKd | Binder
3 | 3.93 | TFSRRPKTRV [CD226, Q15762]
4 | 3.71 | IQISELETNV [SLC1A7, O00341]

target: T2, DFNB31_2, Q9P202; assay: holdup assay; parameters: key: below the threshold = too weak to quantify, mostly under pKd 3.1 to 4; details: plain residues with an end cap or a label only (N-terminal biotin on a linker: ado-ado)

Row | pKd | Binder
5 | below the threshold | TFSRRPKTRV [CD226, Q15762]
6 | below the threshold | IQISELETNV [SLC1A7, O00341]

target: FRMPD2_2, Q68DX3; assay: holdup assay; parameters: key: below the threshold = too weak to quantify, mostly under pKd 3.1 to 4; details: plain residues with an end cap or a label only (N-terminal biotin on a linker: ado-ado)
Sequence (Q68DX3 944-1038): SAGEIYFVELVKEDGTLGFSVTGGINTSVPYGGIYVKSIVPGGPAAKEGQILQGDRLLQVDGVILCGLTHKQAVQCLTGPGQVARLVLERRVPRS

Row | pKd | Binder
7 | below the threshold | TFSRRPKTRV [CD226, Q15762]
8 | 5.03 | IQISELETNV [SLC1A7, O00341]

target: FRMPD2_3, Q68DX3; assay: holdup assay; parameters: key: below the threshold = too weak to quantify, mostly under pKd 3.1 to 4; details: plain residues with an end cap or a label only (N-terminal biotin on a linker: ado-ado)
Sequence (Q68DX3 1073-1166): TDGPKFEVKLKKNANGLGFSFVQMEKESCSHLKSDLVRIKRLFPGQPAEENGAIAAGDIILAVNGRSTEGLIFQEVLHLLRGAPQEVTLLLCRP

Row | pKd | Binder
9 | below the threshold | TFSRRPKTRV [CD226, Q15762]
10 | below the threshold | IQISELETNV [SLC1A7, O00341]

target: T3, GRIP1_7, Q9Y3R0; assay: holdup assay; parameters: key: below the threshold = too weak to quantify, mostly under pKd 3.1 to 4; details: plain residues with an end cap or a label only (N-terminal biotin on a linker: ado-ado)

Row | pKd | Binder
11 | below the threshold | TFSRRPKTRV [CD226, Q15762]
12 | below the threshold | IQISELETNV [SLC1A7, O00341]

target: T4, HTRA4, P83105; assay: holdup assay; parameters: key: below the threshold = too weak to quantify, mostly under pKd 3.1 to 4; details: plain residues with an end cap or a label only (N-terminal biotin on a linker: ado-ado)

Row | pKd | Binder
13 | 4.01 | TFSRRPKTRV [CD226, Q15762]
14 | 3.9 | IQISELETNV [SLC1A7, O00341]

target: IL16_3, Q14005; assay: holdup assay; parameters: key: below the threshold = too weak to quantify, mostly under pKd 3.1 to 4; details: plain residues with an end cap or a label only (N-terminal biotin on a linker: ado-ado)
Sequence (Q14005 1107-1207): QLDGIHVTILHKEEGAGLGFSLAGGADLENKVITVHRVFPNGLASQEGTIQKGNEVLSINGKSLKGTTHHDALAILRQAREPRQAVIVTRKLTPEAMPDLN

Row | pKd | Binder
15 | below the threshold | TFSRRPKTRV [CD226, Q15762]
16 | below the threshold | IQISELETNV [SLC1A7, O00341]

target: Inadl_10, Q8NI35; assay: holdup assay; parameters: key: below the threshold = too weak to quantify, mostly under pKd 3.1 to 4; details: plain residues with an end cap or a label only (N-terminal biotin on a linker: ado-ado)
Sequence (Q8NI35 1673-1763): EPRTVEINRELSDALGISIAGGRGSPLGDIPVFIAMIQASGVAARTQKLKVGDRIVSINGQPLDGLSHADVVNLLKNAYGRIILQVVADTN

Row | pKd | Binder
17 | below the threshold | TFSRRPKTRV [CD226, Q15762]
18 | below the threshold | IQISELETNV [SLC1A7, O00341]

target: Inadl_5, Q8NI35; assay: holdup assay; parameters: key: below the threshold = too weak to quantify, mostly under pKd 3.1 to 4; details: plain residues with an end cap or a label only (N-terminal biotin on a linker: ado-ado)
Sequence (Q8NI35 673-780): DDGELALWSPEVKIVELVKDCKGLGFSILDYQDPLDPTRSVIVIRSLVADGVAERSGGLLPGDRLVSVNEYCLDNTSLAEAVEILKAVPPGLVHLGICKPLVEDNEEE

Row | pKd | Binder
19 | below the threshold | TFSRRPKTRV [CD226, Q15762]
20 | below the threshold | IQISELETNV [SLC1A7, O00341]

target: Inadl_8, Q8NI35; assay: holdup assay; parameters: key: below the threshold = too weak to quantify, mostly under pKd 3.1 to 4; details: plain residues with an end cap or a label only (N-terminal biotin on a linker: ado-ado)
Sequence (Q8NI35 1425-1530): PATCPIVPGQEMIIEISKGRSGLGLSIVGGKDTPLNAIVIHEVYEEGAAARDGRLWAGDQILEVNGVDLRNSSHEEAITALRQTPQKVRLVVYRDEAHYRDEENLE

Row | pKd | Binder
21 | 4.6 | TFSRRPKTRV [CD226, Q15762]
22 | below the threshold | IQISELETNV [SLC1A7, O00341]

target: Inadl_9, Q8NI35; assay: holdup assay; parameters: key: below the threshold = too weak to quantify, mostly under pKd 3.1 to 4; details: plain residues with an end cap or a label only (N-terminal biotin on a linker: ado-ado)
Sequence (Q8NI35 1530-1615): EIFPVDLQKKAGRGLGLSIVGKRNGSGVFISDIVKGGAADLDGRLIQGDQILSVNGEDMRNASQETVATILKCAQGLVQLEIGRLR

Row | pKd | Binder
23 | below the threshold | TFSRRPKTRV [CD226, Q15762]
24 | below the threshold | IQISELETNV [SLC1A7, O00341]

target: T5, LIN7A, O14910; assay: holdup assay; parameters: key: below the threshold = too weak to quantify, mostly under pKd 3.1 to 4; details: plain residues with an end cap or a label only (N-terminal biotin on a linker: ado-ado)

Row | pKd | Binder
25 | below the threshold | TFSRRPKTRV [CD226, Q15762]
26 | 3.52 | IQISELETNV [SLC1A7, O00341]

target: LNX1_3, Q8TBB1; assay: holdup assay; parameters: key: below the threshold = too weak to quantify, mostly under pKd 3.1 to 4; details: plain residues with an end cap or a label only (N-terminal biotin on a linker: ado-ado)
Sequence (Q8TBB1 500-596): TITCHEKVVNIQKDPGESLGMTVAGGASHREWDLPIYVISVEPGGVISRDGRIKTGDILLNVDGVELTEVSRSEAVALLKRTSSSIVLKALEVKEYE

Row | pKd | Binder
27 | 3.5 | TFSRRPKTRV [CD226, Q15762]
28 | below the threshold | IQISELETNV [SLC1A7, O00341]

target: T6, LNX2_2, Q8N448; assay: holdup assay; parameters: key: below the threshold = too weak to quantify, mostly under pKd 3.1 to 4; details: plain residues with an end cap or a label only (N-terminal biotin on a linker: ado-ado)

Row | pKd | Binder
29 | below the threshold | TFSRRPKTRV [CD226, Q15762]
30 | 4.02 | IQISELETNV [SLC1A7, O00341]

target: MAGI1_1, Q96QZ7; assay: holdup assay; parameters: key: below the threshold = too weak to quantify, mostly under pKd 3.1 to 4; details: plain residues with an end cap or a label only (N-terminal biotin on a linker: ado-ado)
Sequence (Q96QZ7 1-106): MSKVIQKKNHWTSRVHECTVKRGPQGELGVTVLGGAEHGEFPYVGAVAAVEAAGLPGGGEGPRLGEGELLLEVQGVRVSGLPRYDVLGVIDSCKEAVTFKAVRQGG

Row | pKd | Binder
31 | 3.62 | TFSRRPKTRV [CD226, Q15762]
32 | below the threshold | IQISELETNV [SLC1A7, O00341]

target: MAGI1_2, Q96QZ7; assay: holdup assay; parameters: key: below the threshold = too weak to quantify, mostly under pKd 3.1 to 4; details: plain residues with an end cap or a label only (N-terminal biotin on a linker: ado-ado)
Sequence (Q96QZ7 456-580): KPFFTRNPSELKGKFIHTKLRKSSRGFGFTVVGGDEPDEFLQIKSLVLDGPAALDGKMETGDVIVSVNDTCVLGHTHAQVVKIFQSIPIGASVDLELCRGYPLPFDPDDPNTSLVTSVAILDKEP

Row | pKd | Binder
33 | 4.75 | TFSRRPKTRV [CD226, Q15762]
34 | below the threshold | IQISELETNV [SLC1A7, O00341]

target: MAGI3_2, Q5TCQ9; assay: holdup assay; parameters: key: below the threshold = too weak to quantify, mostly under pKd 3.1 to 4; details: plain residues with an end cap or a label only (N-terminal biotin on a linker: ado-ado)
Sequence (Q5TCQ9 398-503): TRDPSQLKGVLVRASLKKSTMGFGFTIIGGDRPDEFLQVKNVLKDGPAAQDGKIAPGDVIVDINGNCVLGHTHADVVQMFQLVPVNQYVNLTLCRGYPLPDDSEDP

Row | pKd | Binder
35 | 5.24 | TFSRRPKTRV [CD226, Q15762]
36 | 4.28 | IQISELETNV [SLC1A7, O00341]

target: T7, MPDZ_10, O75970; assay: holdup assay; parameters: key: below the threshold = too weak to quantify, mostly under pKd 3.1 to 4; details: plain residues with an end cap or a label only (N-terminal biotin on a linker: ado-ado)

Row | pKd | Binder
37 | 4.03 | TFSRRPKTRV [CD226, Q15762]
38 | below the threshold | IQISELETNV [SLC1A7, O00341]

target: T8, MPP2, Q14168; assay: holdup assay; parameters: key: below the threshold = too weak to quantify, mostly under pKd 3.1 to 4; details: plain residues with an end cap or a label only (N-terminal biotin on a linker: ado-ado)

Row | pKd | Binder
39 | below the threshold | TFSRRPKTRV [CD226, Q15762]
40 | below the threshold | IQISELETNV [SLC1A7, O00341]

target: T9, NHERF3_4, Q5T2W1; assay: holdup assay; parameters: key: below the threshold = too weak to quantify, mostly under pKd 3.1 to 4; details: plain residues with an end cap or a label only (N-terminal biotin on a linker: ado-ado)

Row | pKd | Binder
41 | below the threshold | TFSRRPKTRV [CD226, Q15762]
42 | below the threshold | IQISELETNV [SLC1A7, O00341]

target: T10, PCLO, Q9Y6V0; assay: holdup assay; parameters: key: below the threshold = too weak to quantify, mostly under pKd 3.1 to 4; details: plain residues with an end cap or a label only (N-terminal biotin on a linker: ado-ado)

Row | pKd | Binder
43 | below the threshold | TFSRRPKTRV [CD226, Q15762]
44 | below the threshold | IQISELETNV [SLC1A7, O00341]

target: T11, RADIL, Q96JH8; assay: holdup assay; parameters: key: below the threshold = too weak to quantify, mostly under pKd 3.1 to 4; details: plain residues with an end cap or a label only (N-terminal biotin on a linker: ado-ado)

Row | pKd | Binder
45 | 3.57 | TFSRRPKTRV [CD226, Q15762]
46 | below the threshold | IQISELETNV [SLC1A7, O00341]

target: TJP1_2, Q07157; assay: holdup assay; parameters: key: below the threshold = too weak to quantify, mostly under pKd 3.1 to 4; details: plain residues with an end cap or a label only (N-terminal biotin on a linker: ado-ado)
Sequence (Q07157 181-274): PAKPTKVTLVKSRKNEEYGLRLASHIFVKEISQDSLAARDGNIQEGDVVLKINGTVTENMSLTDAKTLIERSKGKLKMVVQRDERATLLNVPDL

Row | pKd | Binder
47 | 3.5 | TFSRRPKTRV [CD226, Q15762]
48 | below the threshold | IQISELETNV [SLC1A7, O00341]

target: TJP2_1, Q9UDY2; assay: holdup assay; parameters: key: below the threshold = too weak to quantify, mostly under pKd 3.1 to 4; details: plain residues with an end cap or a label only (N-terminal biotin on a linker: ado-ado)
Sequence (Q9UDY2 24-128): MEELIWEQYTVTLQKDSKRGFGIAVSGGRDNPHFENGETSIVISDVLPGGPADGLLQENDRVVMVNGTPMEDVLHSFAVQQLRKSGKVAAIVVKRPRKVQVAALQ

Row | pKd | Binder
49 | 4.25 | TFSRRPKTRV [CD226, Q15762]
50 | below the threshold | IQISELETNV [SLC1A7, O00341]

target: T12, TX1BP3, O14907; assay: holdup assay; parameters: key: below the threshold = too weak to quantify, mostly under pKd 3.1 to 4; details: plain residues with an end cap or a label only (N-terminal biotin on a linker: ado-ado)

Row | pKd | Binder
51 | below the threshold | TFSRRPKTRV [CD226, Q15762]
52 | 4.03 | IQISELETNV [SLC1A7, O00341]
